# The supplement of paper PMC7877785
# ± gives the uncertainty stated by the source.
# Assay: self-splicing fitness, log relative to wild type (ln ratio); higher = more splicing; Tetrahymena group I intron in knt gene, E. coli kanamycin selection, DiMSum; sequences stand for … in CUCUCU…GGAGGGAAAAGUUAUCAGGCAUGCACCUGGUAGCUAGUCUUUAAACCAAUAGAUUGCAUCGGUUUAAAAGGCAAGACCGUCAAAUUGCGGGAAAGGGGUCAACAGCCGUUCAGUACCAAGUCUCAGGGGAAACUUUGAGAUGGCCUUGCAAAGGGUAUGGUAAUAAGCUGACGGACAUGGUCCUAACCACGCAGCCAAGUCCUAAGUCAACAGAUCUUCUGUUGAUAUGGAUGCAGUUCACAGACUAAAUGUCGGUCGGGGAAGAUGUAUUCUUCUCAUAAGAUAUAGUCGGACCUCUCCUUAAUGGGAGCUAGCGGAUGAAGUGAUGCAACACUGGAGCCGCUGGGAACUAAUUUGUAUGCGAAAGUAUAUUGAUUAGUUUUGGAGUACUCGUGGUCG
# In short: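 Library with all eight P1ex-region intron nucleotides randomised, intron inside the knt kanamycin-resistance gene on pET-22b(+), in E. coli BL21(DE3). Cells grew overnight at 37°C or 30°C on LB agar with or without 25 μg/mL kanamycin (plus 100 μg/mL carbenicillin, 50 μM IPTG, 0.2% rhamnose), in six replicate transformations. Pooled colonies were amplicon-sequenced on Illumina HiSeq 2500. DiMSum fitness is the error-weighted combination of wild-type-normalised replicate fold changes, kanamycin versus none.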
Sequence,self-splicing fitness (ln) (30 °C),self-splicing fitness (ln) (37 °C)
AAAUAGCAAUAUUACGUGGU,-3.87 ± 0.16,-2.84 ± 0.15
AAAUAGCAAUAUUACGUUAA,-2.87 ± 0.2,-2.1 ± 0.24
AAAUAGCAAUAUUACGUUCU,-0.419 ± 0.069,-0.584 ± 0.091
AAAUAGCAAUAUUACGUUUU,-2.81 ± 0.11,-1.05 ± 0.099
AACAAGCAAUAUUACGAACA,-1.16 ± 0.11,-0.392 ± 0.11
AACAAGCAAUAUUACGAACG,-1.33 ± 0.11,-0.418 ± 0.13
AACAAGCAAUAUUACGACGU,0.394 ± 0.063,0.441 ± 0.07
AACAAGCAAUAUUACGACUC,-0.216 ± 0.072,0.125 ± 0.097
AACAAGCAAUAUUACGAGUC,-3.19 ± 0.12,-1.89 ± 0.14
AACAAGCAAUAUUACGAUAU,-1.42 ± 0.098,-1.03 ± 0.12
AACAAGCAAUAUUACGAUCA,-0.766 ± 0.058,-0.628 ± 0.078
AACAAGCAAUAUUACGCAAU,-1.37 ± 0.096,-1.09 ± 0.12
AACAAGCAAUAUUACGCACU,0.195 ± 0.069,-0.195 ± 0.083
AACAAGCAAUAUUACGCAGC,-3.18 ± 0.16,-2.53 ± 0.18
AACAAGCAAUAUUACGCGAG,-1.58 ± 0.072,-0.559 ± 0.067
AACAAGCAAUAUUACGCUCC,-2.2 ± 0.12,-0.601 ± 0.13
AACAAGCAAUAUUACGCUUC,-4.57 ± 0.3,-2.75 ± 0.26
AACAAGCAAUAUUACGGAAC,-3.32 ± 0.16,-1.73 ± 0.15
AACAAGCAAUAUUACGGCCA,-0.5 ± 0.077,-0.412 ± 0.092
AACAAGCAAUAUUACGGCCG,-0.739 ± 0.12,0.121 ± 0.15
AACAAGCAAUAUUACGGGUG,-0.579 ± 0.047,-0.604 ± 0.064
AACAAGCAAUAUUACGGGUU,-2.34 ± 0.11,-2.91 ± 0.16
AACAAGCAAUAUUACGGUAA,-1.83 ± 0.1,-1.04 ± 0.096
AACAAGCAAUAUUACGGUAU,-1.61 ± 0.075,-1.16 ± 0.098
AACAAGCAAUAUUACGGUCC,-1.36 ± 0.063,-0.282 ± 0.072

Sequence,self-splicing fitness (ln) (30 °C),self-splicing fitness (ln) (37 °C)
AACAAGCAAUAUUACGUACC,-1.03 ± 0.083,0.125 ± 0.13
AACAAGCAAUAUUACGUCUU,-0.312 ± 0.057,0.0818 ± 0.077
AACAAGCAAUAUUACGUGCG,-1.17 ± 0.05,-0.476 ± 0.064
AACAAGCAAUAUUACGUGGA,-2.59 ± 0.11,-1.51 ± 0.094
AACAAGCAAUAUUACGUGUG,-1.69 ± 0.043,-0.657 ± 0.05
AACCAGCAAUAUUACGAAAG,-3.21 ± 0.16,-1.99 ± 0.19
AACCAGCAAUAUUACGAACU,-0.369 ± 0.079,0.35 ± 0.1
AACCAGCAAUAUUACGAAUA,-2.32 ± 0.13,-1.71 ± 0.097
AACCAGCAAUAUUACGACGC,-0.537 ± 0.082,-0.0547 ± 0.098
AACCAGCAAUAUUACGAGGA,-2.25 ± 0.13,-1.51 ± 0.11
AACCAGCAAUAUUACGCAGG,-4.46 ± 0.2,-2.28 ± 0.14
AACCAGCAAUAUUACGCCAA,-2.55 ± 0.14,-1.67 ± 0.16
AACCAGCAAUAUUACGCUCG,-0.795 ± 0.075,0.274 ± 0.097
AACCAGCAAUAUUACGGACC,0.38 ± 0.1,-0.273 ± 0.11
AACCAGCAAUAUUACGGCCC,0.0145 ± 0.12,0.0337 ± 0.099
AACCAGCAAUAUUACGGCGC,-0.046 ± 0.068,-0.103 ± 0.086
AACCAGCAAUAUUACGGCUA,-0.197 ± 0.048,0.0992 ± 0.063
AACCAGCAAUAUUACGGGAA,-1.76 ± 0.073,-1.01 ± 0.065
AACCAGCAAUAUUACGGGGC,-3.59 ± 0.16,-2.64 ± 0.16
AACCAGCAAUAUUACGGGUC,-3.62 ± 0.13,-2.68 ± 0.15
AACCAGCAAUAUUACGGUUU,-3.26 ± 0.12,-2.96 ± 0.17
AACCAGCAAUAUUACGUAUC,-2.57 ± 0.097,-1.39 ± 0.1
AACCAGCAAUAUUACGUCGC,-2.34 ± 0.077,-0.689 ± 0.085
AACCAGCAAUAUUACGUGCC,-1.44 ± 0.063,-0.956 ± 0.079
AACCAGCAAUAUUACGUGCG,-0.832 ± 0.053,-0.365 ± 0.064

Sequence,self-splicing fitness (ln) (30 °C),self-splicing fitness (ln) (37 °C)
AACCAGCAAUAUUACGUUAG,-3.68 ± 0.11,-2.44 ± 0.11
AACCAGCAAUAUUACGUUUU,-2.11 ± 0.057,-1.27 ± 0.065
AACGAGCAAUAUUACGACAG,–,-2.37 ± 0.28
AACGAGCAAUAUUACGACCU,-1.02 ± 0.22,-0.178 ± 0.2
AACGAGCAAUAUUACGACUU,-0.000737 ± 0.11,-0.7 ± 0.12
AACGAGCAAUAUUACGAGAG,-3.41 ± 0.15,-1.98 ± 0.16
AACGAGCAAUAUUACGAGCA,-2.69 ± 0.18,-1.97 ± 0.22
AACGAGCAAUAUUACGAGCG,-2.76 ± 0.19,-2.55 ± 0.2
AACGAGCAAUAUUACGAGGC,-2.92 ± 0.29,-2.97 ± 0.48
AACGAGCAAUAUUACGAGUG,-1.64 ± 0.097,-0.602 ± 0.12
AACGAGCAAUAUUACGAUUA,-1.89 ± 0.16,-1.02 ± 0.16
AACGAGCAAUAUUACGCGAG,-2.75 ± 0.24,-2.61 ± 0.25
AACGAGCAAUAUUACGCGUG,-1.89 ± 0.094,-1.12 ± 0.099
AACGAGCAAUAUUACGCUGC,-3.01 ± 0.26,-3.06 ± 0.35
AACGAGCAAUAUUACGGAGA,-3.61 ± 0.26,-2.8 ± 0.28
AACGAGCAAUAUUACGGGCU,-3.63 ± 0.23,-2.49 ± 0.22
AACGAGCAAUAUUACGGGUC,-3.17 ± 0.22,-1.65 ± 0.2
AACGAGCAAUAUUACGGUAU,-4.43 ± 0.22,-1.85 ± 0.12
AACGAGCAAUAUUACGGUUG,-3.98 ± 0.15,-2.37 ± 0.13
AACGAGCAAUAUUACGUACC,-2.91 ± 0.23,-1.9 ± 0.2
AACGAGCAAUAUUACGUAGG,-3.93 ± 0.21,-2.49 ± 0.18
AACGAGCAAUAUUACGUAUC,-3.69 ± 0.4,-3.55 ± 0.46
AACGAGCAAUAUUACGUCAG,-3.08 ± 0.29,-2.97 ± 0.34
AACGAGCAAUAUUACGUUAC,-3.45 ± 0.29,-0.155 ± 0.15
AACGAGCAAUAUUACGUUGA,-3.48 ± 0.21,-3.32 ± 0.22
